Experimental data published in paper doi:10.1101/2024.09.05.611129 (bioRxiv, 2024).

Target: the molecule itself
Assay: SEC

B1: Mycobacterium tuberculosis catalase-peroxidase KatG (enzyme)
chain: MPEQHPPITETTTGAASNGCPVVGHMKYPVEGGGNQDWWPNRLNLKVLHQNPAVADPMGAAFDYAAEVATIDVDALTRDIEEVMTTSQPWWPADYGHYGPLFIRMAWHAAGTYRIHDGRGGAGGGMQRFAPLNSWPDNASLDKARRLLWPVKKKYGKKLSWADLIVFAGNCALESMGFKTFGFGFGRVDQWEPDEVYWGKEATWLGDERYSGKRDLENPLAAVQMGLIYVNPEGPNGNPDPMAAAVDIRETFRRMAMNDVETAALIVGGHTFGKTHGAGPADLVGPEPEAAPLEQMGLGWKSSYGTGTGKDAITSGIEVVWTNTPTKWDNSFLEILYGYEWELTKSPAGAWQYTAKDGAGAGTIPDPFGGPGRSPTMLATDLSLRVDPIYERITRRWLEHPEELADEFAKAWYKLIHRDMGPVARYLGPLVPKQTLLWQDPVPAVSHDLVGEAEIASLKSQIRASGLTVSQLVSTAWAAASSFRGSDKRGGANGGRIRLQPQVGWEVNDPDGDLRKVIRTLEEIQESFNSAAPGNIKVSFADLVVLGGCAAIEKAAKAAGHNITVPFTPGRTDASQEQTDVESFAVLEPKADGFRNYLGKGNPLPAEYMLLDKANLLTLSAPEMTVLVGGLRVLGANYKRLPLGVFTEASESLTNDFFVNLLDMGITWEPSPADDGTYQGKDGSGKVKWTGSRVDLVFGSNSELRALVEVYGADDAQPKFVQDFVAAWDKVMNLDRFDVR
- stoichiometry N: 2
